Data as given in patent US20190262431.

B1: human Cbl-b^29-483 (recombinant, GST fusion protein) (protein)
chain: IQDAVGPPKQAAADRRTVEKTWKLMDKVVRLCQNPKLQLKNSPPYILDILPDTYQHLRLILSKYDDNQKLAQLSENEYFKIYIDSLMKKSKRAIRLFKEGKERMYEEQSQDRRNLTKLSLIFSHMLAEIKAIFPNGQFQGDNFRITKADAAEFWRKFFGDKTIVPWKVFRQCLHEVHQISSGLEAMALKSTIDLTCNDYISVFEFDIFTRLFQPWGSILRNWNFLAVTHPGYMAFLTYDEVKARLQKYSTKPGSYIFRLSCTRLGQWAIGYVTGDGNILQTIPHNKPLFQALIDGSREGFYLYPDGRSYNPDLTGLCEPTPHDHIKVTQEQYELYCEMGSTFQLCKICAENDKDVKIEPCGHLMCTSCLTAWQESDGQGCPFCRCEIKGTEPIIVDPFDPRDEGSRCCSIIDPFGMPMLDLDDDDDREESLMMNRLANVRKCTDRQNSPVTSPGS
B2: full length human Cbl-b (Abnova) (protein)
chain: MANSMNGRNPGGRGGNPRKGRILGIIDAIQDAVGPPKQAAADRRTVEKTWKLMDKVVRLCQNPKLQLKNSPPYILDILPDTYQHLRLILSKYDDNQKLAQLSENEYFKIYIDSLMKKSKRAIRLFKEGKERMYEEQSQDRRNLTKLSLIFSHMLAEIKAIFPNGQFQGDNFRITKADAAEFWRKFFGDKTIVPWKVFRQCLHEVHQISSGLEAMALKSTIDLTCNDYISVFEFDIFTRLFQPWGSILRNWNFLAVTHPGYMAFLTYDEVKARLQKYSTKPGSYIFRLSCTRLGQWAIGYVTGDGNILQTIPHNKPLFQALIDGSREGFYLYPDGRSYNPDLTGLCEPTPHDHIKVTQEQYELYCEMGSTFQLCKICAENDKDVKIEPCGHLMCTSCLTAWQESDGQGCPFCRCEIKGTEPIIVDPFDPRDEGSRCCSIIDPFGMPMLDLDDDDDREESLMMNRLANVRKCTDRQNSPVTSPGSSPLAQRRKPQPDPLQIPHLSLPPVPPRLDLIQKGIVRSPCGSPTGSPKSSPCMVRKQDKPLPAPPPPLRDPPPPPPERPPPIPPDNRLSRHIHHVESVPSRDPPMPLEAWCPRDVFGTNQLVGCRLLGEGSPKPGITASSNVNGRHSRVGSDPVLMRKHRRHDLPLEGAKVFSNGHLGSEEYDVPPRLSPPPPVTTLLPSIKCTGPLANSLSEKTRDPVEEDDDEYKIPSSHPVSLNSQPSHCHNVKPPVRSCDNGHCMLNGTHGPSSEKKSNIPDLSIYLKGDVFDSASDPVPLPPARPPTRDNPKHGSSLNRTPSDYDLLIPPLGEDAFDALPPSLPPPPPPARHSLIEHSKPPGSSSRPSSGQDLFLLPSDPFVDLASGQVPLPPARRLPGENVKTNRTSQDYDQLPSCSDGSQAPARPPKPRPRRTAPEIHHRKPHGPEAALENVDAKIAKLMGEGYAFEEVKRALEIAQNNVEVARSILREFAFPPPVSPRLNL

What was measured:
[1] = target: active (phosphorylated) human Syk (Merck Millipore), P43405
[2] = target: inactive (non-phosphorylated) human Syk-GST (Life technologies), P43405
recombinant Shp-2 = target: T1, recombinant Shp-2
T1 sequence (Q06124 2-593, species assumed, looked up): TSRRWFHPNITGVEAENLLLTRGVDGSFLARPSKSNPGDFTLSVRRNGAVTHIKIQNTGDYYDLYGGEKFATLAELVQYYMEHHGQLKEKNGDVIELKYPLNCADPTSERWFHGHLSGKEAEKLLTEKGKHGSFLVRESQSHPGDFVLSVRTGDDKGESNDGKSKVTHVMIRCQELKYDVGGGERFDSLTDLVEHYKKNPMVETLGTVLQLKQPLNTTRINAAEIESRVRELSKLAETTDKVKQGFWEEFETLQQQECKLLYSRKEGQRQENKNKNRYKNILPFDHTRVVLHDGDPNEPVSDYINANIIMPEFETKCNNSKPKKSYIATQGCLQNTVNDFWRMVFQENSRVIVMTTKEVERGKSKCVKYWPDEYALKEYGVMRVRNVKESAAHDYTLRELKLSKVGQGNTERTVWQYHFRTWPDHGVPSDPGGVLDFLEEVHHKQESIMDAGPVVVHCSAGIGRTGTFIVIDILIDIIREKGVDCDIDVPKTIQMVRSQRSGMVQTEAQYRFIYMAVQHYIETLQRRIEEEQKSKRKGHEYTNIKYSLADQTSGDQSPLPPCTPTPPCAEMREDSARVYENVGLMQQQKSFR

| Protein | in vitro poly-ubiquitination of active Syk (Western blot) [1] | in vitro poly-ubiquitination of inactive Syk (Syk-GST) (Western blot) [2] | in vitro poly-ubiquitination of recombinant active Syk (Western blot) [1] | in vitro poly-ubiquitination of recombinant Shp-2 (recombinant Shp-2) |
| --- | --- | --- | --- | --- |
| B1 | still exhibited poly-ubiquitination activity towards Syk | non-phosphorylated recombinant Syk showed strongly diminished poly-ubiquitination by Cbl-d^29-483 | – | – |
| B2 | – | – | robust poly-ubiquitination of recombinant active Syk was observed | No poly-ubiquitination of recombinant Shp-2 was detected in these assays |
